For three molecules, Kd results are on record in US20250333520A1 (SYNTHEKINE, published 2025).

The target of assay [1] is T1, Fc fused hCD132 (monovalent) (human, UniProt P31785 23-262, limits assumed).
T1 construct: described only as Fc fused, monovalent
T1 sequence (looked up): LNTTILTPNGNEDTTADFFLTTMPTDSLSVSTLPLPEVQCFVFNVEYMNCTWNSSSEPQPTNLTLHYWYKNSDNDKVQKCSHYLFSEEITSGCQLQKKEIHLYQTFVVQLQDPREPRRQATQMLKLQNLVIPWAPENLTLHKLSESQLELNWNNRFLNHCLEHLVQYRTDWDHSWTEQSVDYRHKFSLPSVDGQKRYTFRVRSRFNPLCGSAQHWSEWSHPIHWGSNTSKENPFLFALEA
Kind of assay: SPR, VHH dimer in the mobile phase, Fc fused hCD132 immobilized. As for the experimental part: (§1) The affinity of the non-PEGylated and the PEGylated forms of DR638 and DR736 prepared in substantial accordance with the foregoing were evaluated by surface plasmon resonance with the VHH dimer molecule in the mobile phase and an immobilized Fc fused hCD122 and hCD132 monovalent and bivalent hCD122/hCD132 Fc construct.
On the technique in general: SPR reads the build-up and loss of mass on a sensor chip optically.

The target of assay [2] is T2, Fc fused hCD122 (monovalent) (human, UniProt P14784 27-240, limits assumed).
T2 construct: described only as Fc fused, monovalent
T2 sequence (looked up): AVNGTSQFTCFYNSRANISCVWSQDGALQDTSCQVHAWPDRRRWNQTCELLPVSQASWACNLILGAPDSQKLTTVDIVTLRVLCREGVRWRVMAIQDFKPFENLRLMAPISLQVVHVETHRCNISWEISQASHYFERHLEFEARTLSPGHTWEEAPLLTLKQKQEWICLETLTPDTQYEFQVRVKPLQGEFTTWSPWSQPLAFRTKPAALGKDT
In words: SPR, VHH dimer in the mobile phase, Fc fused hCD122 immobilized. The procedure: as §1

B1: DR736(DR588-DR231) (bispecific antibody)
chain: QVQLQESGGGSVQVGGSLKLSCAASGYTYSSYYCMGWFRQAPGKEREGVAAIDSDGSTSYADSVKGRFTISQDDAKNTLYLQMNSLKPEDTAMYYCAASYEVVDCYPSGYGQDYWGKGTQVTVSSGGGSQVQLQESGGGSVQAGGSLRLSCTASGFTFDDREMNWYRQAPGNECELVSTISSDGSTYYADSVKGRFTISQDNAKNTVYLQMDSVKPEDTAVYYCAADFMIAIQAPGAGCWGQGTQVTVSSASHHHHHH
notes: DR588 VHH - GGGS - DR231 VHH - ASHHHHHH; also called anti-IL2Rb/g VHH2 DR736; non-PEGylated DR736
With B1, the Kd – broadly, the free concentration of one partner at which half of the binding sites on the other are occupied at equilibrium, for simple one-to-one binding – in assay [1] is ~6.5 nM; in assay [2] it was ~21 nM.

B2: DR638(DR229-DR587) (bispecific antibody)
chain: QVQLQESGGGLVQPGGSLRLSCTASGFSFSSYPMTWARQAPGKGLEWVSTIASDGGSTAYAASVEGRFTISRDNAKSTLYLQLNSLKTEDTAMYYCTKGYGDGTPAPGQGTQVTVSSGGGSQVQLQESGGGSVQVGGSLRLSCATSGDTKSIRCMGWFRQTPGKEREGIAAIDREGFATYADSVYDRFTIAQDNAQNTLYLEMNALKPEDTAMYYCAAQNMCRVVRGAMTGVDYWGKGTQVTVSSASHHHHHH
notes: DR229 VHH - GGGS - DR587 VHH - ASHHHHHH; also called anti-IL2Rb/g VHH2 DR638; non-PEGylated DR638
With B2, the Kd is ~0.5 nM in assay [1] and < 0.5 nM in assay [2].

B3: DR638-PEG40K2a (bispecific antibody)
chain: QVQLQESGGGLVQPGGSLRLSCTASGFSFSSYPMTWARQAPGKGLEWVSTIASDGGSTAYAASVEGRFTISRDNAKSTLYLQLNSLKTEDTAMYYCTKGYGDGTPAPGQGTQVTVSSGGGSQVQLQESGGGSVQVGGSLRLSCATSGDTKSIRCMGWFRQTPGKEREGIAAIDREGFATYADSVYDRFTIAQDNAQNTLYLEMNALKPEDTAMYYCAAQNMCRVVRGAMTGVDYWGKGTQVTVSSASHHHHHH
modifications: one 40 KDa branched polyethylene glycol (mono-PEGylated, coupled with sodium cyanoborohydride at pH ~6.3; residue not stated)
notes: also called PEGylated DR638
On to B3, for which the Kd in assay [1] is ~16.3 nM; in assay [2], ~1.1 nM.
